{"source": "IntAct's records for PubMed 20453063", "target": "chd8_human CHD8 (UniProt Q9HCK8)", "sequence (Q9HCK8 whole entry)": "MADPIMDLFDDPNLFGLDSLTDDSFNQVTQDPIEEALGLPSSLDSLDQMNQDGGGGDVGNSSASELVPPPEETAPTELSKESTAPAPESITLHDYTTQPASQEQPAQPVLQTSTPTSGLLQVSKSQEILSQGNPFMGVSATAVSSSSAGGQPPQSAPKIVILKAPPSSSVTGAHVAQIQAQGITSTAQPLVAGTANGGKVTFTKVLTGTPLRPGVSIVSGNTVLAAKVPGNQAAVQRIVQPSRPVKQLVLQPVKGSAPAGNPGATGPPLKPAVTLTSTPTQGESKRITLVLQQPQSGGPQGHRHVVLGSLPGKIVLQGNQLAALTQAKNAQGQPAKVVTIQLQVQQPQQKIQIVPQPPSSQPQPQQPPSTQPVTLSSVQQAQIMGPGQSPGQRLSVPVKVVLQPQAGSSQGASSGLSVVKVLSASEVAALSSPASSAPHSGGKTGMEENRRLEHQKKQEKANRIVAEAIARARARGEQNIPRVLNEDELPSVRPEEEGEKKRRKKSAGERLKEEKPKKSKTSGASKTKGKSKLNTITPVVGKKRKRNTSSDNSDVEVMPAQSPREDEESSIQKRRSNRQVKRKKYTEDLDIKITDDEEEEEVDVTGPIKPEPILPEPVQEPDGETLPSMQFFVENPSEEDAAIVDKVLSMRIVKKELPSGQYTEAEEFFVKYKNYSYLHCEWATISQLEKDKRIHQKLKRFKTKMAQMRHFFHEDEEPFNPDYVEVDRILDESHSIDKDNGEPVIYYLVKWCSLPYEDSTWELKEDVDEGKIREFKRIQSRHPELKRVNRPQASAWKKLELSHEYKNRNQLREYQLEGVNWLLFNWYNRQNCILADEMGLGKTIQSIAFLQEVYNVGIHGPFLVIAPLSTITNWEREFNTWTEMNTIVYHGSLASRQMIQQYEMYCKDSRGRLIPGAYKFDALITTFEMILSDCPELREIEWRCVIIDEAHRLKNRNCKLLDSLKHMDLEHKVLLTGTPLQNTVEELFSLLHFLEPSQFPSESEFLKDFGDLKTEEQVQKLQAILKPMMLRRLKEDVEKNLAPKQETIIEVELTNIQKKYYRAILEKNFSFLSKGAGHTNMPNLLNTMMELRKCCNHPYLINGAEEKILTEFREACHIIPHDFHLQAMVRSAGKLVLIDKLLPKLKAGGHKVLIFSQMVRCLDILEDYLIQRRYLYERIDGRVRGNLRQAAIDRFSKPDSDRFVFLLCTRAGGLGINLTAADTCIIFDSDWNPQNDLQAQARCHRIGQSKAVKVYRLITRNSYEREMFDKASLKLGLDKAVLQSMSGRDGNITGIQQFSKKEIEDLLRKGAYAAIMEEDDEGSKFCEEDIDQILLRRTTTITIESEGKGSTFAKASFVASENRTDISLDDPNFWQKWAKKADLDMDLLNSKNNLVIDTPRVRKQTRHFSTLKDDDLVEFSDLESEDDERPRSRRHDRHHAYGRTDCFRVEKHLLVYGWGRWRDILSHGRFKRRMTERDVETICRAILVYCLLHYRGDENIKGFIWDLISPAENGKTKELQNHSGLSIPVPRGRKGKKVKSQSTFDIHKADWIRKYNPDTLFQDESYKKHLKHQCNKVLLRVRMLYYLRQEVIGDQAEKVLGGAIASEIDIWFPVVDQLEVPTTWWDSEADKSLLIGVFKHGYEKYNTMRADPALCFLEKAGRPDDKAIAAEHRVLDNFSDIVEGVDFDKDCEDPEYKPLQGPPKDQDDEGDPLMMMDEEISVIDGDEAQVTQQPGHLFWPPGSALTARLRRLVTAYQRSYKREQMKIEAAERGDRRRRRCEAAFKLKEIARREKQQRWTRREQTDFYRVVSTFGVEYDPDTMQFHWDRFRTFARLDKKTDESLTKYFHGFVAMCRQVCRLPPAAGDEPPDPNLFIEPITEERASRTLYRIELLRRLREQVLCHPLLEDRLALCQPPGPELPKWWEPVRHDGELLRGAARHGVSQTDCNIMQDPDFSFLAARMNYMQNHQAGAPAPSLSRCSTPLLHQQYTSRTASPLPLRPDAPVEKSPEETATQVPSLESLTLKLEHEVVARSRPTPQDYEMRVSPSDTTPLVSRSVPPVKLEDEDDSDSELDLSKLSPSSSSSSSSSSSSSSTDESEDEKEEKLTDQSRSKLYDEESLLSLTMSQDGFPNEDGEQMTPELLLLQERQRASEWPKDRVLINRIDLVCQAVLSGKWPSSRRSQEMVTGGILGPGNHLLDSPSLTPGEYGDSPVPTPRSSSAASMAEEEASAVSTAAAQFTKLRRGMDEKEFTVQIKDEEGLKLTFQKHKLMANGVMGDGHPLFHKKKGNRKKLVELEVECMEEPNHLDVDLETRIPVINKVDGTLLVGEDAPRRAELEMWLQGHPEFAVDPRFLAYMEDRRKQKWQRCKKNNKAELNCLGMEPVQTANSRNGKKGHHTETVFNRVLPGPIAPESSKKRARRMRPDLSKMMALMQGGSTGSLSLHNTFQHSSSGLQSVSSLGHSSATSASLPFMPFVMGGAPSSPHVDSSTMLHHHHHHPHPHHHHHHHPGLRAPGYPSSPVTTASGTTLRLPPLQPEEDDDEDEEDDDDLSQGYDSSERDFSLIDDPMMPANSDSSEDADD"}
{"substance": "Chromodomain-helicase-DNA-binding protein 7 (Homo sapiens), Q9P2D1 G2108R", "values": [{"measurement": "effect of a mutation on the interaction", "result": "disrupting interaction"}]}
{"substance": "Chromodomain-helicase-DNA-binding protein 7 (Homo sapiens), Q9P2D1 H2096R", "values": [{"measurement": "effect of a mutation on the interaction", "result": "disrupting interaction"}]}
{"substance": "Chromodomain-helicase-DNA-binding protein 7 (Homo sapiens), Q9P2D1 W2091R", "values": [{"measurement": "effect of a mutation on the interaction", "result": "disrupting interaction"}]}
